Measured values: a protein production outcome set (Wang et al. 2014)

Assay: label from the status in PepcDB records
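Further: failed if final PepcDB status was selected cloned or expressed and not failed if soluble or beyond.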

Row | Sequence | protein production
1 | MTIRRLTPTPRAVDWGLFGAVATLLATGVATIFAGIPSSAWIIDLHALSGVVLTLLLPVKLRRVFHRVAPSRLTGTRVLSVGLAAVTLGALGTGVWWIFGGTLDLGPWGLFHLHVALGLLVPPLLLVHLRARFYSPAQATCGGRRDVLRYAGLVTAGALLWRVQGPVNDALDTAGADRRYTGSREEGTDDGNRFPVTSWVADDPDPVDAADWSLSVAGRVAHEASYVAGDLSPDATESAVLDCTSGWYSGHEWQGVRVGDLLDAADPDDAAAWVQFRSITGYRWSLPLSEARDAVLATHVDGERLAHGHGYPLRLVAPGRRGFQWVKWVESVRVSKRRELGEWLAIFVSGL | failed
2 | MDKLDAMQVYVAVVDAHSFARAAEVLGQPRSTVSRVVKELEAWLGAQLLQRTTRKLSVTAEGRRYYEECKRLLAEMAAMEASFPGRSAQPAGRFKVGMPQSLARHCILPRIGEFLQQYPDLELILCSSDNVEDIIQEGFDCVIRTGRIEDSTTLVARPLARYRWMVLASPAWLAAHGRPQSIDELHQHRAVGYLNHRTGRTIDWLFSLDEGDCAIRMRETLVVDDTDAYIQAGIQGLGLIRVASYLAQPYLQSGALVACLEQAASDLPLSLVYPQNRYLPPAVRAFYDWSRRVLQPPHSEA | failed
3 | MAESTDQTEQLRELAEIGLEGYAPYLMNRIMGRYNANLRKEMTALGLSTAKMRALAILSAKDGLPIGTLGIFAVVEQSTLSRALDGLQADGLVRREVDSDDQRSSRVYLTPAGRAVYDRLWPHMRASHDRMFQGITPQERQAFLATLNKMLANIRVHEI | not failed
4 | MALTEEEKSINIVDLFIYLIAHWKWFVLSILLFGGYFWYSYCETPFVYSRTAIVMIKTPANSRSAMQLNNADFIGQVNVASEILQFKSKELMRKVIDRLHADVSYMVRDGLRPRELYTDSPVRVAFLEAGLDEVCSLSVIPKNKQQVELADFSLDELEQRKTVNLNDTVDTPLGKLIVFTAENYSESYFDRPIKVTSKSREGMVAFWLSNLTIRQMSGDAALLSMTMNDLSPTRAADILDMLITVYNEEAIKDKNRISVNTAEFIKERLQIIEHELGSVETDIEDLKRANNGVDINTVAGMYIQDSRQYESSIKELDTQLQLVSFIKQYLQDSNKDDELIPSNIGLSDLSIESQISRYNETLLRRNRLVSGSSSNNPVVQELNRIMQTMKQNIYMAVDNLSKSLRLKKQDYMRQESHVRQKVQAVPGKQREMLSIERQQKVKESLYIFLLNKREENALSQAMVDNNARILDPVSGSNLPISPNKYKKMILGVGCGIIVPSVILLLILMLDTRVHNRKEVEAVVSAPFLADIPQTAKASVDAHEVVVRARGLDPLSEAFRILRTNLGFMLSQAQDHKIITLTSFNIGAGKTFVSVNLAASLVQTKKKVLILDLDLRKGKMSEMAHSKHVKGVAHYLSNPSIVVDDLILRDAFGEGLDLIPIGVIAPNPTELLLSRRLDELMDRLRELYDYIIVDNVPIGLVADASVVNRISDLTLFIVRVGKIDRRQLPELERLYQEHKLTNMAVVLNGTKKGSSGYGYGYGYGQGYGYKNAEKKKGLFGRKKKKSRK | failed
5 | DLLDPETWQFIRDSARHFPPDSDRLPLAEQRALHAGLCRAFRAPLPPDVTLTDRTFGTRPCRLYEPAAPAGTVLFLHGGGFVLGGLDAFDDLCAEIAAGTGLRTVAVDYRLAPEYPHPEDFHDALRAAQAVAQAFPGPLVLMGEDAGGALSASFAHALRGRRALAGQVLVCPMLGGALDRVSALTHATAPMLSRQDVLRMGALRHGGREPAADPTADALRDTDFRGLPPTLIVTAQCDPLTDDGRAYRDAIRAAAGRARWIEEPGLVHGFLRARHRVPRAAASFARILQAASAMAHDR | failed
6 | MKNIINILDDLTINKIAAGEVVERPSSVVKELIENSIDAGANKISIDIIDGGKSLIKITDNGIGIPSSEVEKSFLRHATSKIKKIDDLYDLYSLGFRGEALASISAVSKLEMTTKTKDEIIGTKIYVEGGKIISKEPIGFTNGTTIIIKDIFFNTPARQKFLKSTHAETINISDLINKLAIGNPNIQFKYTNNNKQMLNTPGDGKLVNTIRSIYGKEITENIIDVEFKCNHFKMNGYIGNNNIYRSNKNLQHIYINKRFVKSKIIIDAITESYKSIIPIGKHAVCFLNIEVDPSCIDVNIHPNKLEIKFEKEQEVYIELRDFLKVKLIHSNLIGKYATYSDKKTQPRIAINSREKSTDYKLRNNDLLESTPKNSNITKGKDEVIEVVTLSSEKPINEFQSVSEVLNASVEDDVKNINYLSEDSANDNIQEEFQVDGIKNEGNYYLGDSIKDSEEEYLCSSKRKFSLYGYSVIGVVFNTYIILSKDDSMYLLDQHAAHERILYERYMEKFYRQDINMQILLDPVVIEVSNVDMLQIENNLELFMKFGFELEIFGNNHIMVRCVPTIFGVPETEKFILQIIDNIEEITSNYDLKGERFASMACRSAIKANDKIYDIEIKSLLEQLEKCENPFTCPHGRPIMVEISKTEIEKMFKRIM | failed
7 | MLLDYDFLLLLNDESGKPTRYYYLLQDFEKDFVAREVAQNKTKRFVKEIIGSEKASKTKNSAIEVSNTKASAMKNETIGSGDLKKVCEKIKSALPFGIISAFKPFKDAFYRDFNHNEQKLLIGAAKSGCIQSSADKLAQLKTRLLYWQDKSVKVDWDKPILIKDFFKGNNYLYRRFCFLLGKHFMDRFLKNNAKASVKDFMSSKEFVAKYRYTPKQNTERAKKLQSYLENKRDFIGFVQALNSLKDNPQDPFLPNEETSFLVFANEPTIVFNLRDYLLVLAQIFNQQAICYCESKCPIELINASPGKDFNKTQDSFPDIKFSTPNQLEQSLNALKNKLAAFFSKHPDKHNGMEFNEIAKTQIEALYMPQSSDGFDDFRKHLEESIKSFIRAKKNRYGFPKIFDVADIEQEERKVIEWREKERASKQSYKQNLQINKIANDLKRDKVVDKRTILSVIDADLDRGFIPPKDLLKQLEKISASLSKDIVIAIKQVEKLELSYALIDNIQHNTLDDTLDFTFIVGDSLSVQSLYVTFDLVIDMDRPMSEQFLNHIGELGSFESRERALEWVRLSQAKLIIETPREALKNAQLSQIEEILTGCIFNGAYRLQNDLKGNRHGNFK | failed
8 | SLLSYQHGYHAGNFADVIKHITLTRLLAYLTHKDKPLFYLETHSGRGIYDLKDKQSLKTEEYKEGINPVWLDRENLPSLFLEYISVIKQINLNSTLSYYPGSPYFAINQLRSQDRLYLCELHPTEYNFLLKLPHFNKKVYVNHTDGVSKLNALLPPPEKRGLIFIDPSYERKEEYKEIPYAIKNAYSKFSTGLYCVWYPVVNKAWTEQFLRKMREISSKSVRIELHLNPLINEGMTGCGLWIINPPYTFPSEIKLVLETLTTYFNPGSSSYMIESGSKLCHGL | not failed
9 | MSLATEGNGKVIHLTKAEFLAKVYNFEKNPEEWKYEGDKPAIVDFYADWCGPCKMVAPILDELAKEYDGQIVIYKVDTEKEQELAGAFGIRSIPSILFIPMEGKPEMAQGAMPKASFKKAIDEFLLKKEGHHHHHH | not failed
10 | MSPIEHAVISAAGIGSRLGLNKPKCLVEVGGKTLLAQHLERLAEIPNVWVVVGFQEELVIEQVRNLRRDAIIVRNPDFDRTNTLQSIHRVSRYLDRRFLAVDGDTFIENRSFERFLRAAAGQAGLIGVSRYTTSDGVRVLLDAGGEAVTAFTREPQHAYEWTGIAILRPDMVVDRPIYVYQALEPYLPLPAQELDAFDIDTASDLDMARRVHLNNWNLND | failed
11 | MIESMIIAGGMLVALLYMTACSDKLDVQQMYEFDLATLPVQTTIVKGEEAEIRCQLVRSGEYQDTKYFIRYFQPTGKGELRMENGTVLLPNDLYLLPEETFRLYYRSFGTDQQKIDIYILDSFGQVVQKSFAFNNLEHHHHHH | failed
12 | MRDMEFIEWYPRGYGVAFKVKRKILEEQSEYQKIEVYETEGFGKLLAIDGTVQLVTEGEKSYHEPLVHPAMLAHPNPRRVLIIGGGDGGAIREVLKHEEVEEVIMVEIDKKVIEISAKYIGIDGGILEKMLSDKHEKGKLIIGDGVKFIEENSGFDVIIVDSTDPVGPAEMLFSEEFYKNAYRALNDPGIYVTQAGSVYLFTDEFLTAYRKMRKVFDKVYYYSFPVIGYASPWAFLVGVKGSIDFMKVDAEKGKKLGLEYYDPDKHETLFQMPRYIVQML | not failed
13 | METLNDIKKILINVGLYQGFDLTDPKVSEEVNHETANMKWIKDYTSDGNWDNEFKEDLKNFLDYMEVCQLALNDKNFKIASNSLFMAMIYAGNLSLIFDSIKTDISTLLSAEYKKNSFSWPSLDE | not failed
14 | FKDLRLVSYTLLFDFIVSRVIDLIGEGGYAGKGFMIITKRPDQLAKAINDDLGRGVTFISGQGYYSKENLKIIYCIVGRNEIVKTKEMIHRIDPQAFITITEAHEILGEGFTFEKE | failed
15 | MIYRFTIISDEVDDFVREIQIDPEATFFDLHEAILKAANYTNDQMTSFFICDDDWEKEKEITLEEMDNNPEMDSWIMKETRLNELIEDEKQKLLYVFDYMTERCFFIELSEIITGKEIKGAKCTKKSGEAPKQTVDFEEMAAGGGSLDLDENFYGDQDFDMEDFDAEGFDVNDGAAGGGSSYDEDKFLEHHHHHH | not failed
16 | MSRENNVQSTRAERKTLILALVAGMCSDALLSWLTMSSVPFSLFALIALVLSAQMLYQEYLAHPVAEEVPLVGLACFFVGAFGHSAFIKAQYPQEGSNFFSIVIVLLLIFWIGRKLGYIGKPR | failed
17 | MLRAIYRALWWLVAPLAVLRLVWRSRKERGYREHIGERFGFGPGRALARRIDEATPVVWVHAVSVGETRAAQPLVDALLRARPDVHVLLTHMTPSGRATGEQIFGERVSRCYLPYDLPHAVRRFLRAWRPSLGLVMETEVWPTLIDECRRADVPLVLTNARMSARSFGRAAKFGAAAREVFGGFSRVLAQSPADAERLTALGARNVAVLGNLKFDMTTPPELAARGRAWRAAIGERPVWVAASTRDGEEALVLDAFAALRTPDALLILVPRHPQRFAEVAALVERRGLRHARRTEWAADAAAAAAGGPAAPALPPDVAVLLGDSMGELGAYYAAADVAFIGGSLLPLGGQNLIEACAVGVPVLIGPHVFNFTQATADAVTAGACAQVQDPADLARTLDALFADHARRAAMGAAGAAFAARHRGATARTVDVLNALLPPPRVASSANDEGEAGGLDAGTAID | failed
18 | LTRSNISYFSIGSGTPIIFLHGLSLDKQSTCLFFEPLSNVGQYQRIYLDLPGMGNSDPISPSTSDNVLETLIEAIEEIIGARRFILYGHSYGGYLAQAIAFHLKDQTLGVFLTCPVITADHSKRLTGKHINILEEDINPVENKEYFADFLSMNVIINNQAWHDYQNLIIPGLQKEDKTFIDQLQNNYSFTFEEKLKNINYQFPFKIMVGRNDQVVGYQEQLKLINHNENGEIVLLNRTGHNLMIDQREAVGFHFDLFLDELNSN | failed
19 | IFRVLDDVDTAVFNRVGTLTDGEMTVETVTADKGEDPELVLRVAGALAMESHHAISKALVKASREARDTGAGGEDVPHWIEVGNVEITEAGSFQATIELPLIKPSGEKIMRTTEALLWRPRSMTEVREHLSPRLVAAATSGGAPLIVRWKGKDRGVITLSDHVRSDSSDAIIAIEEQGIETMMLSRDTYPVARRYADSLGITHVLAGIAPGKKAQVVRAVHTRGSTVAMIGDESVMDCLKVADVGVLMGVDRPSDLRDDSDDPAADVVVMREEVMSVPTLFKLARRYAKLVNGNIALAWIYNGVAM | failed
